Test results taken from patent US20090081197A1, “Methods for Selection of Melanocortin Receptor-Specific Agents for Treatment of Obesity” (Palatin Technologies, Inc., priority 2007, published 2009).

Assays:
[1] = biological target: human melanocortin 3 receptor (human) (UniProt P41968); assay: radioligand competition, [I125]-NDP-α-MSH, hMC3-R membranes
[2] = biological target: human melanocortin 4 receptor (human) (UniProt P32245); assay: cell-based or functional assay
[3] = biological target: MC1-R of B-16 mouse melanoma cells (mouse) (UniProt Q01727); assay: radioligand competition, [I125]-NDP-α-MSH, B-16 membranes
[4] = biological target: human melanocortin 4 receptor (human) (UniProt P32245); assay: radioligand competition, [I125]-NDP-α-MSH, hMC4-R membranes, 1 µM compound
[5] = biological target: human melanocortin 4 receptor (human) (UniProt P32245); assay: radioligand competition, [I125]-NDP-α-MSH, hMC4-R membranes
[6] = biological target: human melanocortin 5 receptor (human) (UniProt P33032); assay: radioligand competition, [I125]-NDP-α-MSH, hMC5-R membranes
[7] = biological target: human melanocortin 5 receptor (human) (UniProt P33032); assay: radioligand competition, [I125]-NDP-α-MSH, hMC5-R membranes, 1 µM compound
[8] = biological target: MC1-R of B-16 mouse melanoma cells (mouse) (UniProt Q01727); assay: radioligand competition, [I125]-NDP-α-MSH, B-16 membranes, 1 µM compound
[9] = biological target: human melanocortin 3 receptor (human) (UniProt P41968); assay: radioligand competition, [I125]-NDP-α-MSH, hMC3-R membranes, 1 µM compound

Chain of human melanocortin 3 receptor (human) (P41968 whole entry): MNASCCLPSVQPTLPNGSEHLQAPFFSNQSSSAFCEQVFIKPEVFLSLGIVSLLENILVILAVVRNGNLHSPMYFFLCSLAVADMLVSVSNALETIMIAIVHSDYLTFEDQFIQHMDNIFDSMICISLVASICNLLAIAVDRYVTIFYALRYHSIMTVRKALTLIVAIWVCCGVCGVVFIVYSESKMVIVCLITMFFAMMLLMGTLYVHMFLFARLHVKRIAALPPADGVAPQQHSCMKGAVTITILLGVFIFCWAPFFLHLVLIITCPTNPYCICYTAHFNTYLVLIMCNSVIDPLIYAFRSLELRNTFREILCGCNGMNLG
Chain of human melanocortin 5 receptor (human) (P33032 whole entry): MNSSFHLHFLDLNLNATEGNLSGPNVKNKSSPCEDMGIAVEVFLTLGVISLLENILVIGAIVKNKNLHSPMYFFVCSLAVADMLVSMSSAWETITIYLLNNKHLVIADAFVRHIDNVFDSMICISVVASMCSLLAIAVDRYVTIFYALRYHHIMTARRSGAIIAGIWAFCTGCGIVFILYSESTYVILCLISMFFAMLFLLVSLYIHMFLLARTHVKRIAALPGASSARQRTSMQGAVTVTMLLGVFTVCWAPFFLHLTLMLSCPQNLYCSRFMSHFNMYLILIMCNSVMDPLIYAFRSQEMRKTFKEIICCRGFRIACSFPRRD
Chain of MC1-R of B-16 mouse melanoma cells (mouse) (Q01727 whole entry): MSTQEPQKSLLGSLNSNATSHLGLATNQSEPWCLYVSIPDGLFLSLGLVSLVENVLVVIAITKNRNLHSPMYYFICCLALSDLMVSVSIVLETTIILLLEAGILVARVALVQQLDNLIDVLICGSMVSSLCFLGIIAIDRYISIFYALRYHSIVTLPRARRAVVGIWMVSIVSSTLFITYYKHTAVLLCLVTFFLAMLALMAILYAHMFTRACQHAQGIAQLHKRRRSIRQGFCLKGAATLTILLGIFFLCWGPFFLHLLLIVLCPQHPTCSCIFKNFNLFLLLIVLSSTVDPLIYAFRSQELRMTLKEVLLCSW
Chain of human melanocortin 4 receptor (human) (P32245 whole entry): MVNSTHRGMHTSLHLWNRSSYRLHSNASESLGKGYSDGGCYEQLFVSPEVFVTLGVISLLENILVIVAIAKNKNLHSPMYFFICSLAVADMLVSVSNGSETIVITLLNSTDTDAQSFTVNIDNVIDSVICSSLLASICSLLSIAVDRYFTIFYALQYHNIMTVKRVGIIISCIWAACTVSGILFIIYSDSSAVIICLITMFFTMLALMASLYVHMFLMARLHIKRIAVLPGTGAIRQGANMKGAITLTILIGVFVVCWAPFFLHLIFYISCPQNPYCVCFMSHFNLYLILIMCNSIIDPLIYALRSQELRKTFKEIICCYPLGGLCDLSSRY

Substance	Ki [1] [µM]	EC50 (nM), normal system (cAMP) [2] [nM]	intrinsic activity, normal system (cAMP) [2]	Ki [3] [µM]	Inhibition at 1 µM (NDP-α-MSH) [4] [%]	Ki [5] [µM]	Ki [6] [µM]	Inhibition at 1 µM (NDP-α-MSH) [7] [%]	Inhibition at 1 µM (NDP-α-MSH) [8] [%]	Inhibition at 1 µM (NDP-α-MSH) [9] [%]	EC50 (nM) (cAMP), High Receptor Density System [2]	Efficacy/Intrinsic Activity (cAMP), High Receptor Density System [2]	EC50 (nM) (cAMP), 0.1 ng/mL Doxycycline [2]	EC50 (nM) (cAMP), 10 ng/mL Doxycycline [2]	Efficacy/Intrinsic Activity (cAMP), 0.1 ng/mL Doxycycline [2]	Efficacy/Intrinsic Activity (cAMP), 10 ng/mL Doxycycline [2]
2-naphthylacetyl-1-amino-1-cyclohexane-carbonyl-D-Phe(4-Cl)-Arg-Trp-NH2 (peptide)	0.453	> 1000	0.2	0.897	92	0.04	0.3	63	25	35						
7'-amino-heptanoyl-Ser(Bzl)-D-Phe(4-Cl)-Arg-S-(-)-1-(1-naphthyl)ethylamide (peptide)	0.125	17	0.3	0.338	98	0.007	0.313	64	46	85	180	0.63				
PT-141 (peptide)													3	0.9	0.9	1
